By EC50 is commonly meant the concentration giving half of the maximal effect.

Like-named read-outs stand apart in the source and are kept apart here.

Among the data in CN113354737A (GUANGZHOU EXCELMAB BIOMEDICAL TECH CO LTD, dated 2021) are EC50 values, retold here.

Holding throughout (assay): ELISA, coated antigen, HRP anti-human IgG
In general terms: An ELISA detects its analyte on a solid surface through an enzyme-linked reagent.

For experiment [1], the target named is T1, 重组人GPC3近膜端抗原 (human, UniProt P51654 524-563).
T1 construct: range 524-563
T1 chain (looked up): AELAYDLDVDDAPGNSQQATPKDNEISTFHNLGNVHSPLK

The target in experiment [2] is T1, 重组人GPC3近膜端抗原.
For another experiment, the target named is T2, 重组人GPC3胞外区抗原 (human, UniProt P51654 25-559, limits assumed).
T2 construct: extracellular domain

The target in experiment [3] is T1, 重组人GPC3近膜端抗原.

T2 sequence (P51654 25-559 limits assumed): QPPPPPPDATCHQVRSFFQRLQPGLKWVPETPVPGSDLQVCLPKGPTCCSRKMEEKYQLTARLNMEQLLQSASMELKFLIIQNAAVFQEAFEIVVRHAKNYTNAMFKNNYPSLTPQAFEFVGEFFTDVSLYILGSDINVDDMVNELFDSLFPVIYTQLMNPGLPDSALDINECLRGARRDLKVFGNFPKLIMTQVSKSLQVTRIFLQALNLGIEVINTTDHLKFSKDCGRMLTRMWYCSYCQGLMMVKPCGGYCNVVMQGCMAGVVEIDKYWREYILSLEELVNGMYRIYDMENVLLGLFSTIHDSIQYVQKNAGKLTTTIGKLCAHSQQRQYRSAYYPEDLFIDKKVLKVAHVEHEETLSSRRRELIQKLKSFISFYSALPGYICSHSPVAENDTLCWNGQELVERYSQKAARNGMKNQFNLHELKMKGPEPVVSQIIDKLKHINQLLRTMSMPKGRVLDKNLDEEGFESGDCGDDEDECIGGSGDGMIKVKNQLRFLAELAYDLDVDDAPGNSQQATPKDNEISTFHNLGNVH

In the experiment with 重组人GPC3近膜端抗原 [1], GC33单抗模拟物 (antibody) showed an EC50 of 0.063 µg/mL.

B1: 亲和力成熟变体5E11 (antibody, V domains shown)
VH: QVQLKQSGAELMKPGASVKISCKATGYTFSRYWIEWVKQRPGHGLEWIGEILPGSGSTSYNEKFKGKATFTADTSSNTAYMQLSSLTSEDSAVYYCARSARATYYFDYWGQGTTLTVSS
VL: DIQMTQTTSSLSASLGDRVTISCWASQDISNYLNWYQQKPDGTVKLLIYYTSTLHSGVPSRFSGSGSGTDYSLTISNLEQEDIATYFCQQGNALPYTFGGGTKLEIK
Take B1: the EC50 with 重组人GPC3近膜端抗原 [2] stood at 0.12 µg/mL.

B2: 人源GPC3抗体10C7 (antibody, V domains shown)
VH: QVQLVQSGAEVKKPGASVKLSCKASGYTFTDYEMHWVKQTPGKGLKWIGALDPKTGDTAYAQKFQGRATLTADTSTDTAYMELSSLRSEDSAVYYCTRFYSYTYWGQGTLVTVSS
VL: DIVLTQSPLSLTVTPGEPASISCRSSESLVHSNGNTYLSWLQQRPGQPPRLLIYKISNRFSGVPDRFSGSGAGTDFTLKISRVEAEDVGVYYCTQATQFPYTFGQGTKVEIK
notes: also called 抗人GPC3抗体10C7
As for B2, the EC50 is 0.0836 µg/mL with 重组人GPC3胞外区抗原, 0.0279 µg/mL with 重组人GPC3近膜端抗原 [3] and 0.141 µg/mL with 重组人GPC3近膜端抗原 [2].

B3: 亲和力成熟变体7C6 (antibody, V domains shown)
VH: QVQLQQPGAELVKPGASVKLSCKASGYTFTTYYMYWVKQRPGQGLEWIGEINPSNGGTNFNEKFKSKATLTVDKSSSTAYMQLSSLTSEDSAVYYCTTFAYWGQGTLVTVSA
VL: DIVMTQSPSSLSASLGGKVTITCKASQDINKYIVWYQHKPGKGPRLLIHYTSILQPGIPSRFSGSGSGRDYSFSISNLEPEDIATYYCLQYDNLWTFGGGTKLEIK
On to B3, for which, in the experiment with 重组人GPC3近膜端抗原 [2], it took 0.0428 µg/mL to reach a half-maximal effect (EC50).

B4: 亲和力成熟变体5A5 (antibody, V domains shown)
VH: QVQLQQSGTELVRPGASVKLSCKALGYTFTDYEMHWVKQTPVHGLEWIGAIHPGSGDTAYNQRFKGKATLTADKSSSTAYMEYSSLTSEDSAVYYCTRFYSYAYWGQGTLVTVSA
VL: DVVMTQTPLSLPVSLGDQASISCRSSQSLVHSNGNTYLQWYLQKPGQSPKLLIYKVSNRFSGVPDRFSGRGSGTDFTLKISRVEAEDLGVYFCSQSIYVPYTFGGGTKLEIK
In the experiment with 重组人GPC3近膜端抗原 [2], B4 showed an EC50 of 0.0951 µg/mL.
